# Experimental data from patent publication US20210060185A1.
# Molecular target: dGvpC (Ana GvpC with SG-… at the C-terminus, encoded in the acoustic sensor gene for ClpXP) (Anabaena flos-aquae) (UniProt P09413)
# Experiment: cell-based or functional assay
# Chain of dGvpC (Ana GvpC with SG-… at the C-terminus, encoded in the acoustic sensor gene for ClpXP) (Anabaena flos-aquae) (P09413 1-193, tags or fused parts left off): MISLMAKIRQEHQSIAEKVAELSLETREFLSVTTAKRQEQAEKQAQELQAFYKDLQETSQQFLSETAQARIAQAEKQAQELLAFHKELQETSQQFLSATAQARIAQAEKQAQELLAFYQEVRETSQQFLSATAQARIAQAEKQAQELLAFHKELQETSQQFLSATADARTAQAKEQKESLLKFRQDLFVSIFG
substance,measurement,value
"ClpXP of E. coli Nissle 1917 (native, or ClpX and ClpP cloned from the Nissle genome under the pBAD promoter) (from UniProt P0A6H1 2-424; P0A6G7 15-207) (enzyme)","hydrostatic collapse pressure midpoint of intact WT Nissle cells, ASGClpXP against ARGWT",160 kPa
same,hydrostatic collapse pressure midpoint of ΔClpXP Nissle cells with against without ClpXP induction,160 kPa
same,"nonlinear ultrasound contrast of live WT Nissle cells, ASGClpXP against ARGWT",13 dB
same,nonlinear ultrasound contrast of ΔClpXP Nissle cells with against without ClpXP induction,6.7 dB
